The results in this text go back to PMC11417369, “DNA sequence and chromatin differentiate sequence-specific transcription factor binding in the human malaria parasite Plasmodium falciparum”.

Substitutions are numbered along the chain they refer to.

T1: PF3D7_0420300 D1 (Plasmodium falciparum, UniProt Q8I1N6 1956-2015)
T1 sequence: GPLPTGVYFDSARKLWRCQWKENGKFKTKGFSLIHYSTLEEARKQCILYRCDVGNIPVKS

B1: CACACA_negctrl_site165 (dsDNA)
DNA 1: TCTCAAGTTGTTAAAAAATAAAAACAATAAATCTAA
DNA 2: TTAGATTTATTGTTTTTATTTTTTAACAACTTGAGA
B2: CACACA_negctrl_site1522 (dsDNA)
DNA 1: TTTTTATGTTATCAAATAAATATAAATATAATTCAT
DNA 2: ATGAATTATATTTATATTTATTTGATAACATAAAAA
B3: CACACA_negctrl_site309 (dsDNA)
DNA 1: TTATTCCTTTTCCTTTTTTTTTTTTAACCAAAAAAA
DNA 2: TTTTTTTGGTTAAAAAAAAAAAAGGAAAAGGAATAA
B4: CACACA_negctrl_site17 (dsDNA)
DNA 1: AAAAGAAAAAAAAAAAAAAAAAAAATTAAAATATAA
DNA 2: TTATATTTTAATTTTTTTTTTTTTTTTTTTTCTTTT
B5: CACACA_negctrl_site1830 (dsDNA)
DNA 1: ATGGACATTTTATAAATCACAATGGATATTTTATAA
DNA 2: TTATAAAATATCCATTGTGATTTATAAAATGTCCAT
B6: CACACA_negctrl_site609 (dsDNA)
DNA 1: GTATATATATATATATATATATATATATATATATAT
DNA 2: B6 DNA 1 with G1A, T36C
B7: CACACA_negctrl_site1120 (dsDNA)
DNA 1: TCTCAAAAAAAAAAAAAAAAAAAAAAATTAAAAAAT
DNA 2: ATTTTTTAATTTTTTTTTTTTTTTTTTTTTTTGAGA
B8: CACACA_negctrl_site681 (dsDNA)
DNA 1: CACAAAGGTCTGAAATTTTAGGGGTGCCTGGGACTA
DNA 2: TAGTCCCAGGCACCCCTAAAATTTCAGACCTTTGTG
B9: CACACA_negctrl_site60 (dsDNA)
DNA 1: TTATAGGTTCTATACATATATTTATATATGTACAGA
DNA 2: TCTGTACATATATAAATATATGTATAGAACCTATAA
B10: CACACA_negctrl_site1833 (dsDNA)
DNA 1: TAATATTTTTATTATTAGAATTGTATATGTTTAATA
DNA 2: TATTAAACATATACAATTCTAATAATAAAAATATTA
B11: CACACA_negctrl_site1331 (dsDNA)
DNA 1: AATATAATCTTTCAAAAGAAAAAGACTTCATGAAAA
DNA 2: TTTTCATGAAGTCTTTTTCTTTTGAAAGATTATATT
B12: CACACA_negctrl_site1280 (dsDNA)
DNA 1: TTATTAAGTAAATCACATTTAATTTTTTTTTTTTTT
DNA 2: AAAAAAAAAAAAAATTAAATGTGATTTACTTAATAA
B13: CACACA_negctrl_site930 (dsDNA)
DNA 1: ACATATATATATATATATATATATATATATTCTTAA
DNA 2: TTAAGAATATATATATATATATATATATATATATGT
B14: CACACA_negctrl_site84 (dsDNA)
DNA 1: CACACTTTTTAAATTAACGCATTTCAAAAAAAATAT
DNA 2: ATATTTTTTTTGAAATGCGTTAATTTAAAAAGTGTG
B15: CACACA_negctrl_site232 (dsDNA)
DNA 1: AAACAAAATTTATTTCAAAGTTAATAATTTTTATGT
DNA 2: ACATAAAAATTATTAACTTTGAAATAAATTTTGTTT
B16: CACACA_negctrl_site219 (dsDNA)
DNA 1: GCAAAACATTTTTAAAATAAAAATAATAAAATATAT
DNA 2: ATATATTTTATTATTTTTATTTTAAAAATGTTTTGC
B17: CACACA_negctrl_site514 (dsDNA)
DNA 1: AGATTTCAAGGTAATAGATCAATTTTAATTTGTAAA
DNA 2: TTTACAAATTAAAATTGATCTATTACCTTGAAATCT
B18: CACACA_negctrl_site553 (dsDNA)
DNA 1: TTTTTATATTATTTAATGAGAAATAATTATAAACAA
DNA 2: TTGTTTATAATTATTTCTCATTAAATAATATAAAAA
B19: CACACA_negctrl_site1348 (dsDNA)
DNA 1: TTATTATCATCAAATCAAAAAATTCTTTTACCTGTT
DNA 2: AACAGGTAAAAGAATTTTTTGATTTGATGATAATAA
B20: CACACA_negctrl_site285 (dsDNA)
DNA 1: TATTATGTCTAAAATAACATATTAATATATTATTTC
DNA 2: GAAATAATATATTAATATGTTATTTTAGACATAATA
B21: CACACA_negctrl_site1763 (dsDNA)
DNA 1: AAAAAAAAATATACATATATATATATATATATATAT
DNA 2: ATATATATATATATATATATATGTATATTTTTTTTT
B22: CACACA_negctrl_site1696 (dsDNA)
DNA 1: TTCCTTCAAAATTTAAGTAATAAGATAAAAATATAA
DNA 2: TTATATTTTTATCTTATTACTTAAATTTTGAAGGAA
B23: CACACA_site8429 (dsDNA)
DNA 1: TAAGAAATAAATAGTACACACATAGACACCCACCCA
DNA 2: TGGGTGGGTGTCTATGTGTGTACTATTTATTTCTTA
B24: CACACA_negctrl_site1550 (dsDNA)
DNA 1: TAAAATTAATAAAATATTTTCACTTAATATATATAA
DNA 2: TTATATATATTAAGTGAAAATATTTTATTAATTTTA
B25: CACACA_negctrl_site510 (dsDNA)
DNA 1: TAATATCTAAAAAATATATTTTTTATTTTTTATTAA
DNA 2: TTAATAAAAAATAAAAAATATATTTTTTAGATATTA
B26: CACACA_negctrl_site392 (dsDNA)
DNA 1: TGGTCTTTTAAACAAAAATATAAATTTTTAAATATG
DNA 2: CATATTTAAAAATTTATATTTTTGTTTAAAAGACCA
B27: CACACA_negctrl_site892 (dsDNA)
DNA 1: TTAATATATAATAAATTTTTTTTTTTTTTTTTTTTT
DNA 2: AAAAAAAAAAAAAAAAAAAAATTTATTATATATTAA
B28: CACACA_negctrl_site1272 (dsDNA)
DNA 1: ATTTTTTTTTTTTTTTTTTTTTTTTAGATTAAGAAA
DNA 2: TTTCTTAATCTAAAAAAAAAAAAAAAAAAAAAAAAT
B29: CACACA_negctrl_site307 (dsDNA)
DNA 1: TATTCTATAAATATATTTTTTTAATTTTTTATTTTA
DNA 2: TAAAATAAAAAATTAAAAAAATATATTTATAGAATA
B30: CACACA_site2373 (dsDNA)
DNA 1: ATGTTCTTTAAAACCACACACCCCCCAACCCCCCTC
DNA 2: GAGGGGGGTTGGGGGGTGTGTGGTTTTAAAGAACAT
B31: CACACA_negctrl_site27 (dsDNA)
DNA 1: TTTTTTGGGTAAAATTATAAAATATGTATATATAAA
DNA 2: TTTATATATACATATTTTATAATTTTACCCAAAAAA
B32: CACACA_negctrl_site571 (dsDNA)
DNA 1: TTTGTAATAAACTACTTTTTTTTTTTTTTTTTTTTT
DNA 2: AAAAAAAAAAAAAAAAAAAAAGTAGTTTATTACAAA
B33: CACACA_negctrl_site521 (dsDNA)
DNA 1: TAGTTCTTTTAATTTAGTATTATACAATATTGGAAA
DNA 2: TTTCCAATATTGTATAATACTAAATTAAAAGAACTA
B34: CACACA_negctrl_site753 (dsDNA)
DNA 1: ATTTTTTTTTAATGCAATATATTTTGAAAATTTTAT
DNA 2: ATAAAATTTTCAAAATATATTGCATTAAAAAAAAAT
B35: CACACA_site319 (dsDNA)
DNA 1: TATGTAACCTGTTTTACACACCCCCACCCCCCTCTT
DNA 2: AAGAGGGGGGTGGGGGTGTGTAAAACAGGTTACATA
B36: CACACA_negctrl_site1320 (dsDNA)
DNA 1: TTTTAAAACAATGAGATTCCTTTCTTTTTTTCTTTT
DNA 2: AAAAGAAAAAAAGAAAGGAATCTCATTGTTTTAAAA
B37: CACACA_negctrl_site460 (dsDNA)
DNA 1: ATAATGTATTTATATATATATATATATTTTAATAAA
DNA 2: TTTATTAAAATATATATATATATATAAATACATTAT
B38: CACACA_negctrl_site10 (dsDNA)
DNA 1: AAATCACAAAAAAAAAAAAAAATATATATATATATA
DNA 2: TATATATATATATATTTTTTTTTTTTTTTGTGATTT
B39: CACACA_site8825 (dsDNA)
DNA 1: AAAAAAGATAATTATGCACACACACCCACCCACCCA
DNA 2: TGGGTGGGTGGGTGTGTGTGCATAATTATCTTTTTT
B40: CACACA_negctrl_site979 (dsDNA)
DNA 1: ATGTAATTCTTTTACTTTTTTTTTTTTTTTTTTTTT
DNA 2: AAAAAAAAAAAAAAAAAAAAAGTAAAAGAATTACAT
B41: CACACA_negctrl_site641 (dsDNA)
DNA 1: TCTTGACGAAGTAGAAGGATATATATATAAAAAAAA
DNA 2: TTTTTTTTATATATATATCCTTCTACTTCGTCAAGA

The data set addresses T1, PF3D7_0420300 D1. The data set can be described thus: gcPBM; about 25 ug protein; PBS, 1% milk, 0.2 mg/ml BSA, salmon testes DNA, 0.03% Triton X-100. Conditions: tags: N-terminal GST (pGEX-4T-1), kept; label: surface-attached array probe.
B1: the binding signal is 8.93 ln median PBM intensity, better of two orientations.
The figure for B2 is 8.91 ln median PBM intensity, better of two orientations.
In the case of B3, the binding signal is 8.9 ln median PBM intensity, better of two orientations.
For the molecule B4, the binding signal was 8.84 ln median PBM intensity, better of two orientations.
The figure for B5 is 8.96 ln median PBM intensity, better of two orientations.
The figure for B6 is 8.9 ln median PBM intensity, better of two orientations; for B7 it is 8.78 ln median PBM intensity, better of two orientations.
Consider B8, for which the binding signal was 8.87 ln median PBM intensity, better of two orientations.
The figure for B9 is 8.89 ln median PBM intensity, better of two orientations.
The figure for B10 is 8.92 ln median PBM intensity, better of two orientations.
The figure for B11 is 8.86 ln median PBM intensity, better of two orientations.
For B12, the binding signal is 8.82 ln median PBM intensity, better of two orientations.
The figure for B13 is 8.93 ln median PBM intensity, better of two orientations.
The figure for B14 is 8.95 ln median PBM intensity, better of two orientations; for B15 it is 8.93 ln median PBM intensity, better of two orientations.
The figure for B16 is 8.88 ln median PBM intensity, better of two orientations; for B17 it is 8.83 ln median PBM intensity, better of two orientations; for B18 it is 8.82 ln median PBM intensity, better of two orientations.
With B19, the binding signal was 8.94 ln median PBM intensity, better of two orientations.
The figure for B20 is 8.94 ln median PBM intensity, better of two orientations.
For the molecule B21, the binding signal is 8.93 ln median PBM intensity, better of two orientations.
Regarding B22, the binding signal was 8.8 ln median PBM intensity, better of two orientations.
The figure for B23 is 10.6 ln median PBM intensity, better of two orientations; for B24 it is 8.87 ln median PBM intensity, better of two orientations; for B25 it is 8.86 ln median PBM intensity, better of two orientations.
The figure for B26 is 8.76 ln median PBM intensity, better of two orientations; for B27 it is 8.85 ln median PBM intensity, better of two orientations; for B28 it is 8.84 ln median PBM intensity, better of two orientations.
B29: the binding signal is 8.77 ln median PBM intensity, better of two orientations.
The figure for B30 is 10.6 ln median PBM intensity, better of two orientations.
The figure for B31 is 8.81 ln median PBM intensity, better of two orientations.
The figure for B32 is 8.96 ln median PBM intensity, better of two orientations.
On to B33, for which the binding signal was 8.91 ln median PBM intensity, better of two orientations.
Consider B34, for which the binding signal is 8.96 ln median PBM intensity, better of two orientations.
The figure for B35 is 10.7 ln median PBM intensity, better of two orientations.
The figure for B36 is 8.89 ln median PBM intensity, better of two orientations.
The figure for B37 is 8.96 ln median PBM intensity, better of two orientations; for B38 it is 8.95 ln median PBM intensity, better of two orientations.
Take B39: the binding signal was 10.6 ln median PBM intensity, better of two orientations.
Turning to B40, the binding signal was 8.97 ln median PBM intensity, better of two orientations.
For the molecule B41, the binding signal was 8.88 ln median PBM intensity, better of two orientations.
